{"source": "the supplement of paper PMC9112550", "about": "“Optimization of the antimicrobial peptide Bac7 by deep mutational scanning” (BMC Biology, 2022);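 further: peptides expressed intracellularly from a pBAD plasmid library in pooled LB shake-flask culture, induced with 0.3% L-arabinose, DNA abundance read by NGS, three biological replicates, DESeq2 with apeglm shrinkage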", "data": [{"test_system": "Escherichia coli TOP10", "experiment": "shrunken log2 fold change of peptide-encoding DNA abundance (4.5 h post-induction vs induction); higher = less antimicrobial activity (less host growth inhibition)", "conditions": "time post-induction: 4.5 h; library: site-saturation at positions 5, 18, 19, 20", "values": [{"sequence": "RRIRQRPPRLPRPRPRPMSSPRP", "shrunken log2 fold change": -0.0871}, {"sequence": "RRIRLRPPRLPRPRPRPRDGPRP", "shrunken log2 fold change": 1.06}, {"sequence": "RRIRMRPPRLPRPRPRPLNWPRP", "shrunken log2 fold change": 0.225}, {"sequence": "RRIRSRPPRLPRPRPRPVMFPRP", "shrunken log2 fold change": -0.118}, {"sequence": "RRIRHRPPRLPRPRPRPYRPPRP", "shrunken log2 fold change": -0.115}, {"sequence": "RRIRCRPPRLPRPRPRPANEPRP", "shrunken log2 fold change": 0.0681}, {"sequence": "RRIRYRPPRLPRPRPRPIIIPRP", "shrunken log2 fold change": -0.161}, {"sequence": "RRIRGRPPRLPRPRPRPCENPRP", "shrunken log2 fold change": 0.136}, {"sequence": "RRIRTRPPRLPRPRPRPRGLPRP", "shrunken log2 fold change": 0.62}, {"sequence": "RRIRNRPPRLPRPRPRPGIQPRP", "shrunken log2 fold change": 0.00115}, {"sequence": "RRIRERPPRLPRPRPRPEYLPRP", "shrunken log2 fold change": -1.13}, {"sequence": "RRIRFRPPRLPRPRPRPNAMPRP", "shrunken log2 fold change": -0.191}, {"sequence": "RRIRNRPPRLPRPRPRPCWQPRP", "shrunken log2 fold change": -0.0118}, {"sequence": "RRIRKRPPRLPRPRPRPACIPRP", "shrunken log2 fold change": 0.031}, {"sequence": "RRIRSRPPRLPRPRPRPEHWPRP", "shrunken log2 fold change": 0.422}, {"sequence": "RRIRGRPPRLPRPRPRPEEDPRP", "shrunken log2 fold change": -0.0499}, {"sequence": "RRIRGRPPRLPRPRPRPIQCPRP", "shrunken log2 fold change": 0.0816}, {"sequence": "RRIRWRPPRLPRPRPRPKWCPRP", "shrunken log2 fold change": -0.0668}, {"sequence": "RRIRRRPPRLPRPRPRPNESPRP", "shrunken log2 fold change": 0.137}, {"sequence": "RRIRARPPRLPRPRPRPNDMPRP", "shrunken log2 fold change": -0.00462}, {"sequence": "RRIRNRPPRLPRPRPRPMVQPRP", "shrunken log2 fold change": -0.0629}, {"sequence": "RRIRSRPPRLPRPRPRPPAEPRP", "shrunken log2 fold change": 2.3}, {"sequence": "RRIRERPPRLPRPRPRPRHWPRP", "shrunken log2 fold change": 0.0819}, {"sequence": "RRIRERPPRLPRPRPRPSNHPRP", "shrunken log2 fold change": -0.91}, {"sequence": "RRIRVRPPRLPRPRPRPRYEPRP", "shrunken log2 fold change": -0.273}, {"sequence": "RRIRSRPPRLPRPRPRPPDVPRP", "shrunken log2 fold change": 0.14}, {"sequence": "RRIRMRPPRLPRPRPRPQMYPRP", "shrunken log2 fold change": -0.24}, {"sequence": "RRIRERPPRLPRPRPRPQNPPRP", "shrunken log2 fold change": -0.213}, {"sequence": "RRIRKRPPRLPRPRPRPKDQPRP", "shrunken log2 fold change": 0.619}, {"sequence": "RRIRRRPPRLPRPRPRPRCAPRP", "shrunken log2 fold change": 0.469}, {"sequence": "RRIRERPPRLPRPRPRPMQEPRP", "shrunken log2 fold change": 0.216}, {"sequence": "RRIRPRPPRLPRPRPRPSHSPRP", "shrunken log2 fold change": -0.368}, {"sequence": "RRIRQRPPRLPRPRPRPLCGPRP", "shrunken log2 fold change": 0.0478}, {"sequence": "RRIRERPPRLPRPRPRPTVSPRP", "shrunken log2 fold change": -0.137}, {"sequence": "RRIRERPPRLPRPRPRPARRPRP", "shrunken log2 fold change": 0.539}, {"sequence": "RRIRFRPPRLPRPRPRPMFKPRP", "shrunken log2 fold change": -0.581}, {"sequence": "RRIRCRPPRLPRPRPRPYSTPRP", "shrunken log2 fold change": -0.818}, {"sequence": "RRIRMRPPRLPRPRPRPAYLPRP", "shrunken log2 fold change": 0.0142}, {"sequence": "RRIRLRPPRLPRPRPRPGQAPRP", "shrunken log2 fold change": 0.39}, {"sequence": "RRIRERPPRLPRPRPRPNIEPRP", "shrunken log2 fold change": -0.136}, {"sequence": "RRIRYRPPRLPRPRPRPLQSPRP", "shrunken log2 fold change": 0.00494}, {"sequence": "RRIRSRPPRLPRPRPRPEPQPRP", "shrunken log2 fold change": 0.397}, {"sequence": "RRIRGRPPRLPRPRPRPMIPPRP", "shrunken log2 fold change": -0.219}, {"sequence": "RRIRARPPRLPRPRPRPLNMPRP", "shrunken log2 fold change": -0.502}, {"sequence": "RRIRSRPPRLPRPRPRPFCYPRP", "shrunken log2 fold change": -0.528}, {"sequence": "RRIRNRPPRLPRPRPRPMYVPRP", "shrunken log2 fold change": 0.0786}, {"sequence": "RRIRSRPPRLPRPRPRPHTKPRP", "shrunken log2 fold change": 0.0141}, {"sequence": "RRIRRRPPRLPRPRPRPANAPRP", "shrunken log2 fold change": 0.055}, {"sequence": "RRIRPRPPRLPRPRPRPYMHPRP", "shrunken log2 fold change": -0.493}, {"sequence": "RRIRSRPPRLPRPRPRPVCVPRP", "shrunken log2 fold change": 0.0943}, {"sequence": "RRIRSRPPRLPRPRPRPPHCPRP", "shrunken log2 fold change": 0.105}, {"sequence": "RRIRPRPPRLPRPRPRPHKVPRP", "shrunken log2 fold change": -0.429}, {"sequence": "RRIRWRPPRLPRPRPRPMEHPRP", "shrunken log2 fold change": 0.107}, {"sequence": "RRIRRRPPRLPRPRPRPHQMPRP", "shrunken log2 fold change": 0.19}, {"sequence": "RRIRTRPPRLPRPRPRPNIHPRP", "shrunken log2 fold change": -0.586}, {"sequence": "RRIRVRPPRLPRPRPRPFNFPRP", "shrunken log2 fold change": -1.01}, {"sequence": "RRIRQRPPRLPRPRPRPLHEPRP", "shrunken log2 fold change": 0.149}, {"sequence": "RRIRCRPPRLPRPRPRPIYEPRP", "shrunken log2 fold change": -0.576}, {"sequence": "RRIRLRPPRLPRPRPRPVQLPRP", "shrunken log2 fold change": 0.0978}, {"sequence": "RRIRLRPPRLPRPRPRPTGIPRP", "shrunken log2 fold change": -0.182}, {"sequence": "RRIRLRPPRLPRPRPRPPNKPRP", "shrunken log2 fold change": -0.123}, {"sequence": "RRIRTRPPRLPRPRPRPWMVPRP", "shrunken log2 fold change": -0.208}, {"sequence": "RRIRCRPPRLPRPRPRPGGAPRP", "shrunken log2 fold change": 0.462}, {"sequence": "RRIRHRPPRLPRPRPRPDFIPRP", "shrunken log2 fold change": -0.391}, {"sequence": "RRIRKRPPRLPRPRPRPVQSPRP", "shrunken log2 fold change": 0.00205}, {"sequence": "RRIRIRPPRLPRPRPRPVDGPRP", "shrunken log2 fold change": -0.169}, {"sequence": "RRIRWRPPRLPRPRPRPYYMPRP", "shrunken log2 fold change": -0.258}, {"sequence": "RRIRKRPPRLPRPRPRPAKRPRP", "shrunken log2 fold change": 2.15}, {"sequence": "RRIRSRPPRLPRPRPRPTFAPRP", "shrunken log2 fold change": 0.232}, {"sequence": "RRIRKRPPRLPRPRPRPLLAPRP", "shrunken log2 fold change": 0.833}, {"sequence": "RRIRIRPPRLPRPRPRPAPIPRP", "shrunken log2 fold change": -0.0266}, {"sequence": "RRIRDRPPRLPRPRPRPFIDPRP", "shrunken log2 fold change": 0.168}, {"sequence": "RRIRERPPRLPRPRPRPSLSPRP", "shrunken log2 fold change": -0.573}, {"sequence": "RRIRIRPPRLPRPRPRPHHPPRP", "shrunken log2 fold change": -0.629}, {"sequence": "RRIRHRPPRLPRPRPRPAMNPRP", "shrunken log2 fold change": -0.0974}]}]}
